Where no end group is shown, it is not given here.

Assay in all cases: cell-based or functional assay
For assay [1], the target named is T1, PTHR1 (UniProt Q03431 27-593).
T1 sequence (looked up): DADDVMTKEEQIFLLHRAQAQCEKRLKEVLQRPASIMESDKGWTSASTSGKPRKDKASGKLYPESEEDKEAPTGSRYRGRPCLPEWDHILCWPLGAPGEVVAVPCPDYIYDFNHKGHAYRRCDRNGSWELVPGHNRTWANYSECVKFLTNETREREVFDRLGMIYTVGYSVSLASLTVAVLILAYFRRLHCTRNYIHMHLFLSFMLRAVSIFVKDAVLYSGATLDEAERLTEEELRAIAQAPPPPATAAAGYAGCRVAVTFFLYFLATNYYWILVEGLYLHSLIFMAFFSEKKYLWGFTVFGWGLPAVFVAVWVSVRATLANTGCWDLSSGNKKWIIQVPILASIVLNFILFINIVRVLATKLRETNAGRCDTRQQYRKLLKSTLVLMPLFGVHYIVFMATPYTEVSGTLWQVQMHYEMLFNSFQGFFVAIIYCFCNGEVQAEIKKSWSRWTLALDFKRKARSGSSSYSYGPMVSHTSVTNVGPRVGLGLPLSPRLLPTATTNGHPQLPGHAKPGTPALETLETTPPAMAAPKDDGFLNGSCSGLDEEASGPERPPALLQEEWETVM

Assay [2] addresses T2, CCKBR (UniProt P32239 1-447).
T2 sequence (looked up): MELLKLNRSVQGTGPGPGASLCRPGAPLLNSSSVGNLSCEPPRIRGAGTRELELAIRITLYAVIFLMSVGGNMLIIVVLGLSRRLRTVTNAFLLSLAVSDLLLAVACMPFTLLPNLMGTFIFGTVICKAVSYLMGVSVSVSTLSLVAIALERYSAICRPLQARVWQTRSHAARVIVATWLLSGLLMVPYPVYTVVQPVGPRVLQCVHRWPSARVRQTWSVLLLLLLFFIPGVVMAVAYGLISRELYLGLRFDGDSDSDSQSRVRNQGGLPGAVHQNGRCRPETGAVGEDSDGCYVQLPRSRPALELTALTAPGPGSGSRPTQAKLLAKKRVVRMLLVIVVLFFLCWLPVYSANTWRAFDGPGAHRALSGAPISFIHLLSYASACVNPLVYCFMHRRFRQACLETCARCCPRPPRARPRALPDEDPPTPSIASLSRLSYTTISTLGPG

Assay [3] concerns the target AVPR1A (UniProt P37288 1-418).
Assay [4] has as its target T3, HCRTR2 (UniProt O43614 1-444).
T3 sequence (looked up): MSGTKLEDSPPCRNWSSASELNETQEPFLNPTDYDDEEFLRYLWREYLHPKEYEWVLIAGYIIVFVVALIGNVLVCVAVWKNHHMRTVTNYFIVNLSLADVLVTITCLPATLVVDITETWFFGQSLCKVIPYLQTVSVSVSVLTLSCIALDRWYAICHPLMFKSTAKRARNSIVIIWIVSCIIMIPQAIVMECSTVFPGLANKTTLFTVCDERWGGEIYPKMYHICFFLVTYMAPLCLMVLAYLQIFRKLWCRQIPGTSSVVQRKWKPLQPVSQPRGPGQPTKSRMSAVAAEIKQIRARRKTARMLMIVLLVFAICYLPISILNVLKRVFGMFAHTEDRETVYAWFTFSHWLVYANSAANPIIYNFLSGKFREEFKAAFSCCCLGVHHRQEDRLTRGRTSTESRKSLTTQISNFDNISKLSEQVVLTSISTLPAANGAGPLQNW

Assay [5] deals with GPR109B (UniProt P49019 1-387).
Chain of GPR109B (P49019 whole entry): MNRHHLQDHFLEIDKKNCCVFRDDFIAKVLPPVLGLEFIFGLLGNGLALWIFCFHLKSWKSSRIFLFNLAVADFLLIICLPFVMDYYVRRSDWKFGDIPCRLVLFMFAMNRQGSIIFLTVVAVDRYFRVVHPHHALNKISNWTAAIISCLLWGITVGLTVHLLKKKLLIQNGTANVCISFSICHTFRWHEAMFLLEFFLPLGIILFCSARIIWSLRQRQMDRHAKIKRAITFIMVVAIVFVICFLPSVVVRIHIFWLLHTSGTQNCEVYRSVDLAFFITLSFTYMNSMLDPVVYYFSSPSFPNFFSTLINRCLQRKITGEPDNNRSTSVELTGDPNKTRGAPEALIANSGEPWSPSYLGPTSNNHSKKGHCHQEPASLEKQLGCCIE
In assay [6] the target is EBI2 (UniProt P32249 1-361).
Chain of EBI2 (P32249 whole entry): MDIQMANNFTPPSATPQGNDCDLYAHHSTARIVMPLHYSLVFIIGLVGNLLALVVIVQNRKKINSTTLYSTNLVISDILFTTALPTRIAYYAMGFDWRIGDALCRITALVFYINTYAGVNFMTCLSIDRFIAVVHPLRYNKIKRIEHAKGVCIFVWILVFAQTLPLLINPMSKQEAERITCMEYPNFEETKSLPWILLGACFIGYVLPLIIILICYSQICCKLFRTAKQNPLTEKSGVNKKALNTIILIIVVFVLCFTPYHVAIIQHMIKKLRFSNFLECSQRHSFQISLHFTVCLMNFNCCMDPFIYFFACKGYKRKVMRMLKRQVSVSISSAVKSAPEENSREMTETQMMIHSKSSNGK
For assay [7], the target named is T4, VIPR2 (UniProt P41587 24-438).
T4 sequence (looked up): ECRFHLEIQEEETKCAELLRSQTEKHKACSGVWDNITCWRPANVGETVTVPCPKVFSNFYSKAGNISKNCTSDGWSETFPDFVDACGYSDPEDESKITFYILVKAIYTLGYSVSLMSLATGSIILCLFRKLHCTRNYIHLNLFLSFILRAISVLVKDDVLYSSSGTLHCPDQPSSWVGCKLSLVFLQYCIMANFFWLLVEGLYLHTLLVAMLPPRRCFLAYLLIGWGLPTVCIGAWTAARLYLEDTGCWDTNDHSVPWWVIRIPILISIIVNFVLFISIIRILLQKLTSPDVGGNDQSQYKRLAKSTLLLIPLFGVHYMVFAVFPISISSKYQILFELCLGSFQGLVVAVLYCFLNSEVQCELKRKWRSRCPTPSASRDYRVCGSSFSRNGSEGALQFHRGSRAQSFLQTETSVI

Assay [8] deals with T5, CHRM4 (UniProt P08173 1-479).
T5 sequence (looked up): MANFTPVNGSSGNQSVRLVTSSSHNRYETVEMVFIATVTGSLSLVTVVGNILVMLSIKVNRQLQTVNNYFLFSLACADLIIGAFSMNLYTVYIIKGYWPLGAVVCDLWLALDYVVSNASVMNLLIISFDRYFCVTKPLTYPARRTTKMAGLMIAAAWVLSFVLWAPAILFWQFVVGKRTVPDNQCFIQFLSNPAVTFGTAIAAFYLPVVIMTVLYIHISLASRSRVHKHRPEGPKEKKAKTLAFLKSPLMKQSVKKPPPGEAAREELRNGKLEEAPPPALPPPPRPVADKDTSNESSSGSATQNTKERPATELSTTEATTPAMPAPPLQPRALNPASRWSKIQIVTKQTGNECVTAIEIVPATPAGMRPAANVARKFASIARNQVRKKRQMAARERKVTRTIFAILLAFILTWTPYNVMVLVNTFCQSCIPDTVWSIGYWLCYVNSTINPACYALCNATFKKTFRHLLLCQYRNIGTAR

Chain of AVPR1A (P37288 whole entry): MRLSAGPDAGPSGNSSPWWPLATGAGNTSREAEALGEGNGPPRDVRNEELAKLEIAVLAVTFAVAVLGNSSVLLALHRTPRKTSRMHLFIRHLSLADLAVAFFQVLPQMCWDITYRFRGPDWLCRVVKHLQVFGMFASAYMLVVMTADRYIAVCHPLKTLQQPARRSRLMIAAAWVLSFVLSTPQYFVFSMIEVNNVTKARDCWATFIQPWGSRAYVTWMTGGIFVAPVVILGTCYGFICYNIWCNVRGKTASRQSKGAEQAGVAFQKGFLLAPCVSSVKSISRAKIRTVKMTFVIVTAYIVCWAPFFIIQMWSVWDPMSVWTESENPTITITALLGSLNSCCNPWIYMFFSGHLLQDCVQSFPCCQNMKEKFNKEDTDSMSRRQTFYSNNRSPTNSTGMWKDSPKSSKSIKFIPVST

Take QATVGDVNTDRPGLLDLK (also: synthesised on Rink amide resin, C-terminal amide not given here outright) [octadecaneuropeptide (ODN)]: the “% Activity, arrestin, antagonist mode, 2.5 uM” value in assay [1] is -5.7%; in assay [2], -7.8%; in assay [3] it was -2.4%; in assay [4], -2.7%; in assay [5], -17%; in assay [6] it was -27.3%. The “% Activity, arrestin, antagonist mode, 2.5 uM” value in assay [7] is -6.7%; in assay [8], 5.8%.
